Experimental data reported in patent publication US12295987B2, “Method of using a GIP/GLP1 co-agonist for diabetes” (Eli Lilly and Company, priority 2018, dated 2025).
Numbered stars: 1 amine (or outer) side, 2 acyl side, 3 side chain; on linkers, the order of the positions; unused ones are H or OH. Square brackets hold non-standard residues; d marks the D form. Side chains are listed from the residue outwards. Ends that are not written are not given here. * marks the point of attachment. C20 diacid = O=C(O)CCCCCCCCCCCCCCCCCCC(=O)*; γGlu = O=C(O)[C@H](CCC(=O)[*:2])N[*:1]; αMeL = CC(C)C[C@](C)(N)C(=O)O; αMeK = C[C@](N)(CCCCN)C(=O)O; AEEA = NCCOCCOCC(=O)O; Aib = CC(C)(N)C(=O)O

Target: T1, human gastric inhibitory peptide receptor (hGIPR) (Homo sapiens, UniProt P48546)
T1 construct: expressed in transfected cells; host or cells: HEK293
T1 sequence (P48546 22-466): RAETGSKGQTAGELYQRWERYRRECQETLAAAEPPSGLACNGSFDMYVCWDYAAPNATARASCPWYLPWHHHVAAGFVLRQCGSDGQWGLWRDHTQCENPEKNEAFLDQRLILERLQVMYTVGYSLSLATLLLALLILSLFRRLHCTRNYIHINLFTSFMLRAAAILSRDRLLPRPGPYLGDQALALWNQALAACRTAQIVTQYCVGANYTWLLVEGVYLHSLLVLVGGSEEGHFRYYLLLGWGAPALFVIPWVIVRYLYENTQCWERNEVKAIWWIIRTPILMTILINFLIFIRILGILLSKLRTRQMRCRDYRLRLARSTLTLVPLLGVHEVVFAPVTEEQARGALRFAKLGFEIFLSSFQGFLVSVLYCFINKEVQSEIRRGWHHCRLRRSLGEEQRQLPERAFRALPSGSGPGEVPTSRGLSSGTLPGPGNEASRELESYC
Test: cAMP pharmacological functional assay in presence of 0.1% casein, hGIPR
Assay type: cell-based
Conditions: ratio of hGIPR to hGLP1R cAMP EC50 ratios

| Substance | [hGIPR/hGLP1R] EC50 Ratio |
| --- | --- |
| Y-Aib-EGTFTSDYSK((2-[2-(2-Amino-ethoxy)-ethoxy]-acetyl)2-(γGlu)-CO—(CH2)18—CO2H)LLDKIAQ-Aib-AFIEYLIEGGPSSGAPPPS-NH2 (Y[Aib]EGTFTSDYSK([AEEA-AEEA-γGlu-C20 diacid])LLDKIAQ[Aib]AFIEYLIEGGPSSGAPPPS-NH2; N-terminus assumed; SMILES CC[C@H](C)[C@H](NC(=O)[C@H](CCCCN)NC(=O)[C@H](CC(=O)O)NC(=O)[C@H](CC(C)C)NC(=O)[C@H](CC(C)C)NC(=O)[C@H](CCCCNC(=O)COCCOCCNC(=O)COCCOCCNC(=O)CC[C@H](NC(=O)CCCCCCCCCCCCCCCCCCC(=O)O)C(=O)O)NC(=O)[C@H](CO)NC(=O)[C@H](Cc1ccc(O)cc1)NC(=O)[C@H](CC(=O)O)NC(=O)[C@H](CO)NC(=O)[C@@H](NC(=O)[C@H](Cc1ccccc1)NC(=O)[C@@H](NC(=O)CNC(=O)[C@H](CCC(=O)O)NC(=O)C(C)(C)NC(=O)[C@@H](N)Cc1ccc(O)cc1)[C@@H](C)O)[C@@H](C)O)C(=O)N[C@@H](C)C(=O)N[C@@H](CCC(N)=O)C(=O)NC(C)(C)C(=O)N[C@@H](C)C(=O)N[C@@H](Cc1ccccc1)C(=O)N[C@H](C(=O)N[C@@H](CCC(=O)O)C(=O)N[C@@H](Cc1ccc(O)cc1)C(=O)N[C@@H](CC(C)C)C(=O)N[C@H](C(=O)N[C@@H](CCC(=O)O)C(=O)NCC(=O)NCC(=O)N1CCC[C@H]1C(=O)N[C@@H](CO)C(=O)N[C@@H](CO)C(=O)NCC(=O)N[C@@H](C)C(=O)N1CCC[C@H]1C(=O)N1CCC[C@H]1C(=O)N1CCC[C@H]1C(=O)N[C@@H](CO)C(N)=O)[C@@H](C)CC)[C@@H](C)CC) [Peptide 25] | 3.23 |
| Y-Aib-EGT-αMeF(2F)-TSD-4Pal-SI-αMeL-LDEK((2-[2-(2-Amino-ethoxy)-ethoxy]-acetyl)2-(γGlu)-CO—(CH2)18—CO2H)AQ-Aib-EFI-(D-Glu)-YLIEGGPSSGAPPPS-NH2 (YXEGTXTSDXSIXLDEKAQXEFIXYLIEGGPSSGAPPPS; Aib, αMeF(2F), 4Pal, αMeL, D-Glu; lipidated K; amide; (2)..(2) Xaa at position 2 is Aib; (6)..(6) Xaa at position 6 is alpha-methyl-Phe(2F); (10)..(10) Xaa at position 10 is 4Pal; (13)..(13) Xaa at position 13 is alpha-methyl-Leu; MOD_RES (17)..(17) Lys at position 17 is chemically modified by conjugation of the epsilon-amino group of the Lys side chain with (2-[2-(2-amino-ethoxy)-ethoxy]-acetyl)2-(gamma-Glu)-CO-(CH2)18- CO2H; (20)..(20) Xaa at posit) [Peptide 182] | 5.01 |
| Y-Aib-EGT-αMeF(2F)-TSDYSI-αMeL-LDEK((2-[2-(2-Amino-ethoxy)-ethoxy]-acetyl)2-(γGlu)-CO—(CH2)18—CO2H)AQ-Aib-EFIEYLIEGGPSSGAPPPS-NH2 (YXEGTXTSDYSIXLDEKAQXEFIEYLIEGGPSSGAPPPS; Aib, αMeF(2F), αMeL; acylated lysine C20 diacid; amide; (2)..(2) Xaa at position 2 is Aib; (6)..(6) Xaa at position 6 is alpha-methyl-Phe(2F); (13)..(13) Xaa at position 13 is alpha-methyl-Leu; MOD_RES (17)..(17) Lys at position 17 is chemically modified by conjugation of the epsilon-amino group of the Lys side chain with (2-[2-(2-amino-ethoxy)-ethoxy]-acetyl)2-(gamma-Glu)-CO-(CH2)18- CO2H; (20)..(20) Xaa at position 20 is Aib; MOD_RES (39)..(39) Ser a) [Peptide 118] | 3.03 |
| Y-Aib-EGT-αMeF(2F)-TSD-4Pal-SI-αMeL-LD-Orn-K((2-[2-(2-Amino-ethoxy)-ethoxy]-acetyl)2-(γGlu)-CO—(CH2)16—CO2H)AQ-Aib-TFI-(D-Glu)-αMeY-LIEGGPSSGAPPPS-NH2 (YXEGTXTSDXSIXLDXKAQXTFIXXLIEGGPSSGAPPPS; Aib, 4Pal, Orn, αMe residues, lipidated Lys, D-Glu, amide; (2)..(2) Xaa at position 2 is Aib; (6)..(6) Xaa at position 6 is alpha-methyl-Phe(2F); (10)..(10) Xaa at position 10 is 4Pal; (13)..(13) Xaa at position 13 is alpha-methyl-Leu; (16)..(16) Xaa at position 16 is Orn; MOD_RES (17)..(17) Lys at position 17 is chemically modified by conjugation of the epsilon-amino group of the Lys side chain with (2-[2-(2-amino-ethoxy)-ethoxy]-acetyl)2-(gamma-Glu)-CO-) [Peptide 239] | 5.34 |
| Y-Aib-EGTFTSDYSI-αMeL-LDEK((2-[2-(2-Amino-ethoxy)-ethoxy]-acetyl)2-(γGlu)-CO—(CH2)18—CO2H)AQ-αMeK-AFIEYLLEGGPSSGAPPPS-NH2 (Y[Aib]EGTFTSDYSI[αMeL]LDEK([AEEA-AEEA-γGlu-C20 diacid])AQ[αMeK]AFIEYLLEGGPSSGAPPPS-NH2; N-terminus assumed; SMILES CC[C@H](C)[C@H](NC(=O)[C@H](Cc1ccccc1)NC(=O)[C@H](C)NC(=O)[C@](C)(CCCCN)NC(=O)[C@H](CCC(N)=O)NC(=O)[C@H](C)NC(=O)[C@H](CCCCNC(=O)COCCOCCNC(=O)COCCOCCNC(=O)CC[C@H](NC(=O)CCCCCCCCCCCCCCCCCCC(=O)O)C(=O)O)NC(=O)[C@H](CCC(=O)O)NC(=O)[C@H](CC(=O)O)NC(=O)[C@H](CC(C)C)NC(=O)[C@](C)(CC(C)C)NC(=O)[C@@H](NC(=O)[C@H](CO)NC(=O)[C@H](Cc1ccc(O)cc1)NC(=O)[C@H](CC(=O)O)NC(=O)[C@H](CO)NC(=O)[C@@H](NC(=O)[C@H](Cc1ccccc1)NC(=O)[C@@H](NC(=O)CNC(=O)[C@H](CCC(=O)O)NC(=O)C(C)(C)NC(=O)[C@@H](N)Cc1ccc(O)cc1)[C@@H](C)O)[C@@H](C)O)[C@@H](C)CC)C(=O)N[C@@H](CCC(=O)O)C(=O)N[C@@H](Cc1ccc(O)cc1)C(=O)N[C@@H](CC(C)C)C(=O)N[C@@H](CC(C)C)C(=O)N[C@@H](CCC(=O)O)C(=O)NCC(=O)NCC(=O)N1CCC[C@H]1C(=O)N[C@@H](CO)C(=O)N[C@@H](CO)C(=O)NCC(=O)N[C@@H](C)C(=O)N1CCC[C@H]1C(=O)N1CCC[C@H]1C(=O)N1CCC[C@H]1C(=O)N[C@@H](CO)C(N)=O) [Peptide 21] | 4.85 |
| Y-Aib-EGT-αMeF(2F)-TSD-cTA-SI-αMeL-LDEK((2-[2-(2-Amino-ethoxy)-ethoxy]-acetyl)2-(γGlu)-CO—(CH2)18—CO2H)AQ-Aib-EFIEYLIEGGPSSGAPPPS-NH2 (YXEGTXTSDXSIXLDEKAQXEFIEYLIEGGPSSGAPPPS; Aib, cTA, αMeF(2F), αMeL; acylated lysine C20 diacid; amide; (2)..(2) Xaa at position 2 is Aib; (6)..(6) Xaa at position 6 is alpha-methyl-Phe(2F); (10)..(10) Xaa at position 10 is cTA; (13)..(13) Xaa at position 13 is alpha-methyl-Leu; MOD_RES (17)..(17) Lys at position 17 is chemically modified by conjugation of the epsilon-amino group of the Lys side chain with (2-[2-(2-amino-ethoxy)-ethoxy]-acetyl)2-(gamma-Glu)-CO-(CH2)18- CO2H; (20)..(20) Xaa at positi) [Peptide 155] | 5.97 |
